# Data as given in the supplement of paper PMC7125110.
# ± gives the standard error. Fewer inactive variants are shown than the library holds.
# B1: glmS ribozyme (parent)
# chain: AUAAAAGCGCCAGAACUACAGAAAUGUAGUUGACGAGGAGGAGGUUUAUCGAAUUUUCGGCGGAUGCCUCCAAA
# Experiments:
# Conditions in all cases: with glucosamine-6-phosphate
# glucosamine-6-phosphate [1] = variants of: B1; test: self-cleavage kobs at 40 uM GlcN6P; higher = faster cleavage; RNA array
# In short: (§1)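 Over ~14 h at 37 °C, tiles were imaged as glucosamine-6-phosphate (40 μM to 10 mM) in HEPES/KCl/Mg(OAc)2 buffer flowed across sequenced MiSeq chips. The chips carried barcoded ribozyme variants transcribed in situ by E. coli RNA polymerase and tracked with a hybridised Cy3 probe. After normalisation to baseline and to non-cleaving reference variants, one- or two-exponential decay fits of per-tile medians gave kobs. kcat and KM followed from weighted Michaelis–Menten fits across concentrations.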
# glucosamine-6-phosphate [2] = variants of: B1; test: self-cleavage kobs at 10000 uM GlcN6P; higher = faster cleavage; RNA array
# In short: as §1
# glucosamine-6-phosphate [3] = variants of: B1; test: self-cleavage kobs at 2500 uM GlcN6P; higher = faster cleavage; RNA array
# In short: as §1
# glucosamine-6-phosphate [4] = variants of: B1; test: self-cleavage kobs at 640 uM GlcN6P; higher = faster cleavage; RNA array
# In short: as §1
# glucosamine-6-phosphate [5] = variants of: B1; test: self-cleavage kobs at 160 uM GlcN6P; higher = faster cleavage; RNA array
# In short: as §1
Variant,self-cleavage kobs at 40 uM GlcN6P (glucosamine-6-phosphate [1]) [s⁻¹],self-cleavage kobs at 10000 uM GlcN6P (glucosamine-6-phosphate [2]) [s⁻¹],self-cleavage kobs at 2500 uM GlcN6P (glucosamine-6-phosphate [3]) [s⁻¹],self-cleavage kobs at 640 uM GlcN6P (glucosamine-6-phosphate [4]) [s⁻¹],self-cleavage kobs at 160 uM GlcN6P (glucosamine-6-phosphate [5]) [s⁻¹]
U47C G62A,< 1e-05,< 1e-05,,,
U46C A64C,< 1e-05,< 1e-05,< 1e-05,,
U47G C68U,4.04e-05 ± 8.8e-06,0.0017 ± 0.00029,0.0005 ± 0.00011,0.000601 ± 0.00012,
A52C A53U G59A A64C,< 1e-05,,,< 1e-05,
G44U C50U A53C,< 1e-05,,< 1e-05,< 1e-05,
G51C C61U,< 1e-05,,,,
U47G U56G C70A,7.34e-05 ± 2.5e-05,6.01e-05 ± 1.4e-05,7.39e-05 ± 1.8e-05,6.47e-05 ± 1.3e-05,0.000192 ± 3.8e-05
A52U G59U,< 1e-05,< 1e-05,,< 1e-05,< 1e-05
A48U G63A,< 1e-05,< 1e-05,< 1e-05,< 1e-05,
A48C A64U,< 1e-05,,,< 1e-05,< 1e-05
U45A U55A,0.00151 ± 0.00018,0.09 ± 0.031,0.00931 ± 0.0037,0.00993 ± 0.0023,
U45A U55G,0.00178 ± 0.00026,0.0415 ± 0.013,0.00894 ± 0.0023,0.00532 ± 0.0012,0.00389 ± 0.0012
C50G A64G C71A,8.51e-05 ± 2.3e-05,9.96e-05 ± 2.1e-05,,,
U47C C58U C71U,< 1e-05,3.48e-05 ± 1.1e-05,,,
A48U A64C,< 1e-05,,,< 1e-05,< 1e-05
U49C U57A,< 1e-05,,,,
A53G G62A C67U,< 1e-05,,,,
A52U C58A,< 1e-05,,,< 1e-05,
A52U C58G,< 1e-05,< 1e-05,,< 1e-05,
U49G G59C,< 1e-05,< 1e-05,,,< 1e-05
U49C C61G,< 1e-05,< 1e-05,,,
G51A C58A,< 1e-05,< 1e-05,,< 1e-05,
A52C G60C,< 1e-05,< 1e-05,< 1e-05,< 1e-05,< 1e-05

Variant,self-cleavage kobs at 40 uM GlcN6P (glucosamine-6-phosphate [1]) [s⁻¹],self-cleavage kobs at 10000 uM GlcN6P (glucosamine-6-phosphate [2]) [s⁻¹],self-cleavage kobs at 2500 uM GlcN6P (glucosamine-6-phosphate [3]) [s⁻¹],self-cleavage kobs at 640 uM GlcN6P (glucosamine-6-phosphate [4]) [s⁻¹],self-cleavage kobs at 160 uM GlcN6P (glucosamine-6-phosphate [5]) [s⁻¹]
U49C U54G,< 1e-05,< 1e-05,,< 1e-05,< 1e-05
G44U C58G,< 1e-05,< 1e-05,< 1e-05,< 1e-05,< 1e-05
U49C G63A,< 1e-05,< 1e-05,,,< 1e-05
U49C G63C,< 1e-05,,,< 1e-05,
A48C U65G,< 1e-05,,,,< 1e-05
U45G C50A U65G,< 1e-05,,,< 1e-05,
G51C U69C,< 1e-05,< 1e-05,< 1e-05,,
G51A A64U,< 1e-05,,,,< 1e-05
G44A U56C C61U,< 1e-05,< 1e-05,< 1e-05,< 1e-05,
U45A G62U,< 1e-05,,< 1e-05,< 1e-05,< 1e-05
G51C,< 1e-05,< 1e-05,< 1e-05,< 1e-05,< 1e-05
A52C C61U,< 1e-05,< 1e-05,< 1e-05,< 1e-05,
G51A U57A,< 1e-05,< 1e-05,,,
U47C A48C,< 1e-05,,,,< 1e-05
U47A U55A,0.000618 ± 0.00013,0.0432 ± 0.015,0.00615 ± 0.0017,0.00544 ± 0.0015,0.00147 ± 0.00021
U46G C50G,4.21e-05 ± 9.2e-06,2.21e-05 ± 7.3e-06,,4.09e-05 ± 1.3e-05,7.37e-05 ± 1.5e-05
G51U A64G,< 1e-05,,< 1e-05,,< 1e-05
C50U G62U,< 1e-05,< 1e-05,,,
A53C U57C C67G,< 1e-05,< 1e-05,,,
A53U C61A,< 1e-05,< 1e-05,,,
U47G C70G C71G,8.97e-05 ± 2.5e-05,,,,
C50G G62A C68A,6.73e-05 ± 1.6e-05,9.9e-05 ± 2.3e-05,,,
G51C A64G C68A,< 1e-05,< 1e-05,,,

Variant,self-cleavage kobs at 40 uM GlcN6P (glucosamine-6-phosphate [1]) [s⁻¹],self-cleavage kobs at 10000 uM GlcN6P (glucosamine-6-phosphate [2]) [s⁻¹],self-cleavage kobs at 2500 uM GlcN6P (glucosamine-6-phosphate [3]) [s⁻¹],self-cleavage kobs at 640 uM GlcN6P (glucosamine-6-phosphate [4]) [s⁻¹],self-cleavage kobs at 160 uM GlcN6P (glucosamine-6-phosphate [5]) [s⁻¹]
A53U C67U,0.000272 ± 2.9e-05,0.0214 ± 0.0049,0.0104 ± 0.0027,0.00132 ± 0.00019,0.000713 ± 8.9e-05
G44C U55A,< 1e-05,,,< 1e-05,< 1e-05
G44U U49C U57A,< 1e-05,,,< 1e-05,
U49C C70A,< 1e-05,,,,
G44U U49G,< 1e-05,,,< 1e-05,< 1e-05
U47A C71U,0.000701 ± 8.3e-05,0.0342 ± 0.0081,0.00535 ± 0.001,0.00323 ± 0.00057,0.0018 ± 0.0003
G51A U55A C58G,< 1e-05,< 1e-05,,,
A53G U57C G63U,< 1e-05,< 1e-05,,,
U45A U69C,0.000354 ± 5.9e-05,0.00144 ± 0.00031,0.00166 ± 0.0005,0.000518 ± 0.00013,0.000781 ± 0.00033
U46G U54C C71U,8.18e-05 ± 1.8e-05,0.00463 ± 0.0014,0.00226 ± 0.00098,,
U46C U57A,< 1e-05,5.47e-05 ± 1.8e-05,,,
G51U A53G,< 1e-05,,< 1e-05,< 1e-05,< 1e-05
U46G G51C,< 1e-05,< 1e-05,,< 1e-05,
C50G G62A C70U,9.58e-05 ± 2.3e-05,0.000104 ± 1.6e-05,0.000549 ± 0.00012,0.000184 ± 4.7e-05,
U49G U54G,3.67e-05 ± 1.4e-05,0.000838 ± 0.00014,,,
U46G C61U,< 1e-05,,,< 1e-05,< 1e-05
G44U G66U U69G,< 1e-05,,,,
U46A G60U,< 1e-05,,< 1e-05,,< 1e-05
U47C C61U G63U,< 1e-05,,,,
A52G U56C,< 1e-05,0.000259 ± 4.9e-05,7.09e-05 ± 1.3e-05,4.15e-05 ± 1.2e-05,
C50G C68G,0.00159 ± 0.00078,6.8e-05 ± 4.8e-06,0.000142 ± 1.2e-05,0.000121 ± 1.1e-05,
C50G C68U,0.000168 ± 2.2e-05,0.000128 ± 1.3e-05,0.000189 ± 2e-05,0.00021 ± 2.4e-05,0.000233 ± 4.2e-05
A48G A53G C68G,6.75e-05 ± 2.2e-05,5.82e-05 ± 1.7e-05,,,

Variant,self-cleavage kobs at 40 uM GlcN6P (glucosamine-6-phosphate [1]) [s⁻¹],self-cleavage kobs at 10000 uM GlcN6P (glucosamine-6-phosphate [2]) [s⁻¹],self-cleavage kobs at 2500 uM GlcN6P (glucosamine-6-phosphate [3]) [s⁻¹],self-cleavage kobs at 640 uM GlcN6P (glucosamine-6-phosphate [4]) [s⁻¹],self-cleavage kobs at 160 uM GlcN6P (glucosamine-6-phosphate [5]) [s⁻¹]
A53G G62A,< 1e-05,< 1e-05,,< 1e-05,
U47G U49G C50G G51A C61A,9.02e-05 ± 2.3e-05,0.000142 ± 3.3e-05,,,
A48U C61A,< 1e-05,< 1e-05,,,< 1e-05
G44C U45A C71U,< 1e-05,,,,
A52C U55C,< 1e-05,,,,< 1e-05
G51C A53U U57C G59U,< 1e-05,,,,
U47C U49A U54G C68A,< 1e-05,< 1e-05,,,
U46G A53U C70G,5.33e-05 ± 2.4e-05,0.000165 ± 4e-05,0.000254 ± 7.7e-05,,
U47G G63U,< 1e-05,< 1e-05,< 1e-05,< 1e-05,< 1e-05
U45A A52U,< 1e-05,0.001 ± 0.00019,,0.000476 ± 0.00013,
G51A U55G,< 1e-05,,,< 1e-05,< 1e-05
A48C U49C C61G,< 1e-05,< 1e-05,< 1e-05,,< 1e-05
G51U A53G A64G U65G,< 1e-05,< 1e-05,,,
U45C A64G,0.000103 ± 1.8e-05,0.00342 ± 0.00055,0.00182 ± 0.00053,,
U45A U47G U57A,< 1e-05,0.000108 ± 2.3e-05,,,
A48C A52C,< 1e-05,< 1e-05,< 1e-05,< 1e-05,< 1e-05
A48C C61U C67G,< 1e-05,< 1e-05,,< 1e-05,
U49C G60A,< 1e-05,< 1e-05,,,< 1e-05
U46A U57A,< 1e-05,,,,< 1e-05
G51U G60U,< 1e-05,< 1e-05,< 1e-05,< 1e-05,< 1e-05
U47A C68A,< 1e-05,,,,
C50G C67U C68U C71U,0.000172 ± 4.1e-05,7.29e-05 ± 1.3e-05,0.000127 ± 3e-05,0.000393 ± 0.00011,
